# Results: patent US20030215899A1, “Reversible oxidation of protein tyrosine phosphatases” (CEPTYR, Inc., priority 2002, published 2003)
# Target: PDGFR (ligand-activated, tyrosine phosphorylated) (rat (endogenous protein of Rat-1 fibroblasts)) (UniProt Q05030)
# Assay: preliminary studies in ligand-stimulated Rat-1 cells; method not stated
# PDGFR (ligand-activated, tyrosine phosphorylated) (rat (endogenous protein of Rat-1 fibroblasts)), sequence (Q05030 32-1097 limits assumed): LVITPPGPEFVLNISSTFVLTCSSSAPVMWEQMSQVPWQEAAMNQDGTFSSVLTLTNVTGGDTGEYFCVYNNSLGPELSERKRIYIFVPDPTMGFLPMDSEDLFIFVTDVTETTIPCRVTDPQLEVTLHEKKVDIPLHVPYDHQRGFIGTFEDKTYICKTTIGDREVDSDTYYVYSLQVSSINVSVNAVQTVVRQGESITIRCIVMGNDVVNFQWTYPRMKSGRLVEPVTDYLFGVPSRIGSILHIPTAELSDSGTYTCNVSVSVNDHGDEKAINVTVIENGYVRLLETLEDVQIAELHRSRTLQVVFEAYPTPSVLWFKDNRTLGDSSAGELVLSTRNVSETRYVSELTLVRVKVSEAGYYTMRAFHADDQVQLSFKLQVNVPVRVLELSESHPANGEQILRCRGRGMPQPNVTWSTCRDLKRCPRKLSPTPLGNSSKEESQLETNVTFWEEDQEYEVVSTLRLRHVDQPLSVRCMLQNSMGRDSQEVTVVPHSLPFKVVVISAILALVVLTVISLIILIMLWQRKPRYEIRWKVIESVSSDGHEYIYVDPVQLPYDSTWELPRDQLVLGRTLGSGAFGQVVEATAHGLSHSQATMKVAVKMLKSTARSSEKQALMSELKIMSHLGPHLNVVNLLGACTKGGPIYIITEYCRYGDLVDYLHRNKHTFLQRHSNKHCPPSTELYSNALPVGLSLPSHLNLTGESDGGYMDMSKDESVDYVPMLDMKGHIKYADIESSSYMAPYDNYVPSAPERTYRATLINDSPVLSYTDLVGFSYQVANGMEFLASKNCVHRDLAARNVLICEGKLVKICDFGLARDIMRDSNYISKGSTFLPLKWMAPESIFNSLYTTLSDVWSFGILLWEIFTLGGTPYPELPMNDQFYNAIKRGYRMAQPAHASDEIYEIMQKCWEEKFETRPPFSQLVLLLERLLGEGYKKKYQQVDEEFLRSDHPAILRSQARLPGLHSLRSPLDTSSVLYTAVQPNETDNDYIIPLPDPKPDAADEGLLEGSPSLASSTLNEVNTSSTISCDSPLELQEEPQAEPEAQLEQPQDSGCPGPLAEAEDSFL
substance,measurement,value
SHP-2 (from UniProt P41499 2-593) (enzyme),percent of the total population of SHP-2 recruited into a complex,10%
